Measured values taken from US10087225B2, “Formulation of MK2 inhibitor peptides” (MOERAE MATRIX, INC., priority 2015, dated 2018).

What was measured:
Test in all cases: Kinase Profiling Assay
Format in all cases: biochemical
Conditions in all cases: for % activity: 100 μM
WNK3(h) = WNK3(h) (Homo sapiens, UniProt Q9BYP7)
Itk(h) = biological target: T1, Itk(h) (Homo sapiens, UniProt Q08881)
T1 sequence (Q08881 1-620): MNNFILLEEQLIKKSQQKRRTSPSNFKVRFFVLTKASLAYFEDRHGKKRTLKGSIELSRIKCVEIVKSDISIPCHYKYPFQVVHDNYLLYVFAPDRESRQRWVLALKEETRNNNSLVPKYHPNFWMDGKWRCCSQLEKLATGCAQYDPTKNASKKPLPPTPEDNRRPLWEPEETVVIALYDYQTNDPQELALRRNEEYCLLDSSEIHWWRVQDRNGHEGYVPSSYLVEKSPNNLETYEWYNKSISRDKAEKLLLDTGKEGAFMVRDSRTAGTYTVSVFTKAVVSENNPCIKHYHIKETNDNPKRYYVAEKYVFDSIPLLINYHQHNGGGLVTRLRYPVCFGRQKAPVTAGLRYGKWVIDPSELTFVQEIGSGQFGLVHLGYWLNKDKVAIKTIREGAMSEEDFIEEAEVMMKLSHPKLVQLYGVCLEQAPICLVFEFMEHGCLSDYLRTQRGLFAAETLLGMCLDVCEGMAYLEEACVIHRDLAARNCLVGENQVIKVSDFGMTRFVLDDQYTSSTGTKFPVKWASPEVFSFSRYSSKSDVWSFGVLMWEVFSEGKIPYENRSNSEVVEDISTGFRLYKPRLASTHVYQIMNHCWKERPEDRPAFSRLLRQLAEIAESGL

Met(Y1248C)(h) = Met(Y1248C)(h) (Homo sapiens, UniProt P08581, Y1230C)
Met(D1246H)(h) = Met(D1246H)(h) (Homo sapiens, UniProt P08581, D1228H)
EphB2(h) = biological target: T2, EphB2(h) (Homo sapiens, UniProt P29323)
T2 sequence (P29323 19-1055): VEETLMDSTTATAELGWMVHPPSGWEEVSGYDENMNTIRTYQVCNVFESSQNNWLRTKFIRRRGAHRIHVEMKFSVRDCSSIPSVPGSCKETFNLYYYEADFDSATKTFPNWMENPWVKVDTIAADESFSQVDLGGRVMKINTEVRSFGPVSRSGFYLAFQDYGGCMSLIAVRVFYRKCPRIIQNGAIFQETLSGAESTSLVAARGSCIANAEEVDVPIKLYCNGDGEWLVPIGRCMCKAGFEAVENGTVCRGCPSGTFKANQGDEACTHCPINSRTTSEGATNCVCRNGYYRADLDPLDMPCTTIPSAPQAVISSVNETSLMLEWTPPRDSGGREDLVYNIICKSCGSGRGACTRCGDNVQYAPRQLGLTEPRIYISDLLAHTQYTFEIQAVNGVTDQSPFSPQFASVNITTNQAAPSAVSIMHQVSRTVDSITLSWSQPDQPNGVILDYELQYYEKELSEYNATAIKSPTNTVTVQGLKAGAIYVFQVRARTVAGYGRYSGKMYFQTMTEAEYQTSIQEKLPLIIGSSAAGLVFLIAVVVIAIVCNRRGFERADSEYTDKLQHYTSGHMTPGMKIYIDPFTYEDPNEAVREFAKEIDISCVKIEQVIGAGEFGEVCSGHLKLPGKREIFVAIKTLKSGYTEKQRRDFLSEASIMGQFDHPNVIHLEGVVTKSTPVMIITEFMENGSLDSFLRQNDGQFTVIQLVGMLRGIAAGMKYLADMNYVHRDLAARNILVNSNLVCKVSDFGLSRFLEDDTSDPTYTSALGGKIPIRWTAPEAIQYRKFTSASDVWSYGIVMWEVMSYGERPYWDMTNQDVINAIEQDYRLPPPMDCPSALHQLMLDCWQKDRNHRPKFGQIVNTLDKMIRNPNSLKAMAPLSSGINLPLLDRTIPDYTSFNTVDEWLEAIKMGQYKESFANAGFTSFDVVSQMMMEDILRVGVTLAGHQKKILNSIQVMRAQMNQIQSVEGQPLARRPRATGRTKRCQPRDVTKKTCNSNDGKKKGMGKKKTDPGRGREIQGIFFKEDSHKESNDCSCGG

SRPK1(h) = SRPK1(h) (Homo sapiens, UniProt Q96SB4)
SRPK1(h), sequence (Q96SB4 whole entry): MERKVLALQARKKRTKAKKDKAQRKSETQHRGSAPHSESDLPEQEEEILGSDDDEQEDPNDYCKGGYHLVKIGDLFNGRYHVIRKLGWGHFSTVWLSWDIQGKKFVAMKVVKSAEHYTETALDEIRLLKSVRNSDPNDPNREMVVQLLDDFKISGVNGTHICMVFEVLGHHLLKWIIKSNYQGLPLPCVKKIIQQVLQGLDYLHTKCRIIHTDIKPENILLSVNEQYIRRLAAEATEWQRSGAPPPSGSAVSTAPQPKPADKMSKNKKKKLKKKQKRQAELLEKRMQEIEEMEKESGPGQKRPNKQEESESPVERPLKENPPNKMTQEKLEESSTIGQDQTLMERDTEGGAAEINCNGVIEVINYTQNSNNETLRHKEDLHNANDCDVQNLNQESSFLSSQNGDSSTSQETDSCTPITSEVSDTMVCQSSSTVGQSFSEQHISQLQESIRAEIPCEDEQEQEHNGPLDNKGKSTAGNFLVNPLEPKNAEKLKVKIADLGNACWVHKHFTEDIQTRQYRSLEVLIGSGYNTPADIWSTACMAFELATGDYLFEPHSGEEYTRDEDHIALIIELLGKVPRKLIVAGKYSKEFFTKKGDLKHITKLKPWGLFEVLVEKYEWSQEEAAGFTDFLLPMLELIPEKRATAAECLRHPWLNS

FGFR1(h) = FGFR1(h) (Homo sapiens, UniProt P11362)
FGFR1(h), sequence (P11362 22-822): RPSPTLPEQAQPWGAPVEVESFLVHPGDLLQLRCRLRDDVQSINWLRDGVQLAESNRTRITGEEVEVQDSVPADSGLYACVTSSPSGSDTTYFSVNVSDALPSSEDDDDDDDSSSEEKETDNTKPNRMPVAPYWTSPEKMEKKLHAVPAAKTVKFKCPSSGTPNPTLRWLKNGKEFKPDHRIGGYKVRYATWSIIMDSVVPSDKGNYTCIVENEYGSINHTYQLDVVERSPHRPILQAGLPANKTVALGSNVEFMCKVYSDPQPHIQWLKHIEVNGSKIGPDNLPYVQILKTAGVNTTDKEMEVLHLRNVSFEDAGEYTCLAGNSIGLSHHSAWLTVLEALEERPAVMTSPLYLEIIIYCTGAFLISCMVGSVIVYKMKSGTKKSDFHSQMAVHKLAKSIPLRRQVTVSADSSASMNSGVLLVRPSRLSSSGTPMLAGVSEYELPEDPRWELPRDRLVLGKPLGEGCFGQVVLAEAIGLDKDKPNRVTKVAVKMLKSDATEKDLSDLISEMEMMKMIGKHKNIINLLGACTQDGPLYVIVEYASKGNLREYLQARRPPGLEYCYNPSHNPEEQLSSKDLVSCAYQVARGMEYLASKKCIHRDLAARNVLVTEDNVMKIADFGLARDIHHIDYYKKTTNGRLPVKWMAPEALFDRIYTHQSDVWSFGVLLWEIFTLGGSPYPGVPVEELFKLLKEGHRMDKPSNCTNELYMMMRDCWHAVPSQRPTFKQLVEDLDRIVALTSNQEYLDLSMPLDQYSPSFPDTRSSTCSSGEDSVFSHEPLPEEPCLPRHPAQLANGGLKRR

Rsk4(h) = Rsk4(h) (Homo sapiens, UniProt Q9UK32)
Rsk4(h), sequence (Q9UK32 whole entry): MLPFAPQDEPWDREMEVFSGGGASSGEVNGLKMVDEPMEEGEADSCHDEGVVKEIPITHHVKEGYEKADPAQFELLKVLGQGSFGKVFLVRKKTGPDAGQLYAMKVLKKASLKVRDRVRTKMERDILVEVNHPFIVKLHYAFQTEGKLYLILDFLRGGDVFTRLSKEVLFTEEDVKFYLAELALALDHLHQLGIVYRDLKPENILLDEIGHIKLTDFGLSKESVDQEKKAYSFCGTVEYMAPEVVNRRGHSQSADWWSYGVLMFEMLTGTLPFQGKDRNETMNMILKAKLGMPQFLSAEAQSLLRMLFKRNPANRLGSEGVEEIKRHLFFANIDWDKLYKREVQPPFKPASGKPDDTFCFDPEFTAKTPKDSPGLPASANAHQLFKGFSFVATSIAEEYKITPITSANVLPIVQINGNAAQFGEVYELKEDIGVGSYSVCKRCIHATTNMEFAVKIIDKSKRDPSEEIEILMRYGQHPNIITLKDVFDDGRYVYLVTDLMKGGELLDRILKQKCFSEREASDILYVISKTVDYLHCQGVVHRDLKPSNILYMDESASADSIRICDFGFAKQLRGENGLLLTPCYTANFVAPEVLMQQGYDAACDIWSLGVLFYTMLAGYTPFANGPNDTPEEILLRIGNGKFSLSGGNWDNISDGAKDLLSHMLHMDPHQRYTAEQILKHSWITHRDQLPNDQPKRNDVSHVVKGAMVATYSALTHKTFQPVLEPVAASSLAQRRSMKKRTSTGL

Met(Y1248D)(h) = Met(Y1248D)(h) (Homo sapiens, UniProt P08581, Y1230D)
SGK3(h) = biological target: T3, SGK3(h) (Homo sapiens, UniProt Q96BR1)
T3 sequence (Q96BR1 1-496): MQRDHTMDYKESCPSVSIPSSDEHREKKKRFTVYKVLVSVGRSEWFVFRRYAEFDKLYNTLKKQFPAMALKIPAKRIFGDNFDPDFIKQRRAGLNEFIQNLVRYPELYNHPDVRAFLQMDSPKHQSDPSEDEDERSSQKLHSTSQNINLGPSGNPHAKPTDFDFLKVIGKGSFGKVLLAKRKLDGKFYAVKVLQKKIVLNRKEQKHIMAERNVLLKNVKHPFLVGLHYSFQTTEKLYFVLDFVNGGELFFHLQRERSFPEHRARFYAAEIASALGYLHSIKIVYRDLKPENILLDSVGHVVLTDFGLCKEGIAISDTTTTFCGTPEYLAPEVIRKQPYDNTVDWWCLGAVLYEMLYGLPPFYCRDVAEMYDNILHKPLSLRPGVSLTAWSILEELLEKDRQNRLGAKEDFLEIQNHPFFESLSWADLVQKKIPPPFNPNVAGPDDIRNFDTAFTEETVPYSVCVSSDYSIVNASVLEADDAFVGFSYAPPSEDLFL

JAK2(h) = JAK2(h) (Homo sapiens, UniProt O60674)

WNK3(h), sequence (Q9BYP7 whole entry): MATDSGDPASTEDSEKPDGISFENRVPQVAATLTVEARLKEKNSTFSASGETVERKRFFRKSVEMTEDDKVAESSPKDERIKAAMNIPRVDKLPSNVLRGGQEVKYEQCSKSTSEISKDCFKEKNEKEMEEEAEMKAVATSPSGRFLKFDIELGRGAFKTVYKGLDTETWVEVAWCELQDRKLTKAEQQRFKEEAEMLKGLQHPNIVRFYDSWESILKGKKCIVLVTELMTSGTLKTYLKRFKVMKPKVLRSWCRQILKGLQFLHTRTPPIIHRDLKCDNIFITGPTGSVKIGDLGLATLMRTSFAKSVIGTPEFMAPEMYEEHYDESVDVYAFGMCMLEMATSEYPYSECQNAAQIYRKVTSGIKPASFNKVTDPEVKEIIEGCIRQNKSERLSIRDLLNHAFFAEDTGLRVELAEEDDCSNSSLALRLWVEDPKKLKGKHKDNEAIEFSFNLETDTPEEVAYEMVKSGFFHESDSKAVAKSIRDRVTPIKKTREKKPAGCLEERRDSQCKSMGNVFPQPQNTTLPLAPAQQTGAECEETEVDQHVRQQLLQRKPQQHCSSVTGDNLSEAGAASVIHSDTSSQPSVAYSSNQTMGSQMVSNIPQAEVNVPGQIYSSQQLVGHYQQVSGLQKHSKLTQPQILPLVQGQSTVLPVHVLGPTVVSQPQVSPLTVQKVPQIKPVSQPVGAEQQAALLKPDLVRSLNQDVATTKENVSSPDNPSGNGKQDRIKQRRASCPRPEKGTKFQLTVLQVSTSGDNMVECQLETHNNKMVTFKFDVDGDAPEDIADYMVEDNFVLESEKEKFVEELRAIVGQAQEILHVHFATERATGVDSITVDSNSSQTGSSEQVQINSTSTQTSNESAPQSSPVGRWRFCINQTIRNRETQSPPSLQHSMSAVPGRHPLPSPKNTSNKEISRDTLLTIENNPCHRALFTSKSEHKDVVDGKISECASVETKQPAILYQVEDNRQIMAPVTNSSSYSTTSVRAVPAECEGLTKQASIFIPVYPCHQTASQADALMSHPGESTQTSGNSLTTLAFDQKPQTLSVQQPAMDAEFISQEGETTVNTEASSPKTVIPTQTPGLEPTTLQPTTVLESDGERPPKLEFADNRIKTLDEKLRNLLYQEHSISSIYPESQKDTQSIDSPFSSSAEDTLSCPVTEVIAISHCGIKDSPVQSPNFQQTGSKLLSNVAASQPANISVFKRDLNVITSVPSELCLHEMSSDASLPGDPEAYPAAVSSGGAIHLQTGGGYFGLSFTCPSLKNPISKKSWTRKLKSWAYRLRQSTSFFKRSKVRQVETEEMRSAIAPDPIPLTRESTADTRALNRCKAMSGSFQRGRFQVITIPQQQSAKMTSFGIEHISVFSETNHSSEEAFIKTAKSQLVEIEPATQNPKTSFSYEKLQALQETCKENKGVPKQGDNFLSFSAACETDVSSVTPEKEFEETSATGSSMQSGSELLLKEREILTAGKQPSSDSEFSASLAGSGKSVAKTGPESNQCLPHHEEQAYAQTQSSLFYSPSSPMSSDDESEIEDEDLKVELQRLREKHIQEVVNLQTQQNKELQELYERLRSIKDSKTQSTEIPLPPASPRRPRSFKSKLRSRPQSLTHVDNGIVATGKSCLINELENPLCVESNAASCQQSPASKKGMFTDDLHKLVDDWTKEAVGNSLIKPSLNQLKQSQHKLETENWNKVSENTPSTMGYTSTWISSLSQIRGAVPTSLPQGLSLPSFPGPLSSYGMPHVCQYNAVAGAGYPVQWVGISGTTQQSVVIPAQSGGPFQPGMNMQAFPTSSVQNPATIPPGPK

| Substance | % activity (WNK3(h)) | % activity (Itk(h)) | % activity (Met(Y1248C)(h)) | % activity (Met(D1246H)(h)) | % activity (EphB2(h)) | % activity (SRPK1(h)) | % activity (FGFR1(h)) | % activity (Rsk4(h)) | % activity (Met(Y1248D)(h)) | % activity (SGK3(h)) | % activity (JAK2(h)) | also measured |
| --- | --- | --- | --- | --- | --- | --- | --- | --- | --- | --- | --- | --- |
| H-YARAAARQARAKALARQLGVAA-OH [MMI-0100] |  |  |  |  |  |  |  |  |  |  |  | activity at 100 µM (WNK3(h)): 100%; activity at 100 µM (Itk(h)): 99%; activity at 100 µM (Met(Y1248C)(h)): 77%; activity at 100 µM (Met(D1246H)(h)): 99%; activity at 100 µM (EphB2(h)): 68%; activity at 100 µM (SRPK1(h)): 69%; activity at 100 µM (FGFR1(h)): 120%; activity at 100 µM (Rsk4(h)): 99%; activity at 100 µM (Met(Y1248D)(h)): 87%; activity at 100 µM (SGK3(h)): 95%; activity at 100 µM (JAK2(h)): 89% |
| HRRIKAWLKKIKALARQLGVAA (Mammalian) [MMI-0500] | 9% | 7% | 73% | 150% | 70% | 80% | 18% | 29% | 218% | -3% | 49% |  |
| YARAAARQARAKALNRQLGVA (Mammalian) [MMI-0200] | 97% | 98% | 141% | 139% | 128% | 93% | 97% | 125% | 118% | 58% | 131% |  |
